The text below walks through data of patent publication US6372898 (SCHERING, dated 2002).

Data set [1] concerns the target T1, cytokine receptor common gamma chain (γc), wild type.
T1 chain: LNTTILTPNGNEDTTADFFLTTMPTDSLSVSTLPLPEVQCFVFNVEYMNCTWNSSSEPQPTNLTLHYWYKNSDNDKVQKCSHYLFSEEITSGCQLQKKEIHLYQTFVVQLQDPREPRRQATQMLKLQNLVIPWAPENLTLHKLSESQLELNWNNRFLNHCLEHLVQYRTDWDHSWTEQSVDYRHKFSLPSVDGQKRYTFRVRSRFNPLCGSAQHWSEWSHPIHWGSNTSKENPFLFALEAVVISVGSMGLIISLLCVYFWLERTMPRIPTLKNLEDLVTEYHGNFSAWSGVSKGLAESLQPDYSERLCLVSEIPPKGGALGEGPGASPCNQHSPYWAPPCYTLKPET

The target in data set [2] is T2, cytokine receptor common gamma chain (γc), wild type (human, UniProt P31785 23-369).
T2 construct: also called WT γc; gc
T2 sequence: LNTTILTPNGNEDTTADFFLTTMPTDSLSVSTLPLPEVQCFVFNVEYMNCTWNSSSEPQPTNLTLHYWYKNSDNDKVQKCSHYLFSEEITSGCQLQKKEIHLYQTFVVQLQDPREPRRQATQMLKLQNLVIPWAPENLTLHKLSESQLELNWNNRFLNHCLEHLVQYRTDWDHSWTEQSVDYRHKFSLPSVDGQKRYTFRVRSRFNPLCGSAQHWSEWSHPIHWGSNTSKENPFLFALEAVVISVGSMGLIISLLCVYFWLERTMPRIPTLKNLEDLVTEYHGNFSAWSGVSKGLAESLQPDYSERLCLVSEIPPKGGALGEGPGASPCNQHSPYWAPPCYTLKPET
The experiment in a line: co-immunoprecipitation from 293T lysates; anti-FLAG M2 IP of FLAG-tagged Jak3, blot for γc. As to the method: (§1) Lysates were centrifuged at 12,000×g, and NaCl was added to 500 mM final concentration. Lysates were immunoprecipitated with the appropriate antibody. Rabbit polyclonal, mouse monoclonal (M2), and Sepharose-conjugated M2 anti-FLAG antibodies were purchased from Kodak Scientific Imaging Systems (Rochester, N.Y.), Goat anti-γ_c antibody was purchased from R&D (Minneapolis, Minn.). Lysates were boiled, and subjected to 8% SDS-PAGE or 12% SDS-PAGE for experiments with Jak3 fragments, and electrotransferred onto […] membranes (Immobilon-P, Millipore, Bradford, Mass.). Membranes were probed with one of the following antibodies: Mouse monoclonal M2 anti-FLAG antibody, rabbit polyclonal anti-γ_c antibody, or mouse monoclonal anti-Myc tag antibody 9E10 (Santa Cruz Biotechnology, Santa Cruz, Calif.). For the immunoprecipitation with EBV-transformed B cell lines and the IL-2R expressing fibroblasts, cells were lysed as described above, except with a final NaCl concentration of 150 mM. Lysates were immunoprecipitated with monoclonal (M2) anti-FLAG antibody, rabbit polyclonal antibody directed against the C-terminus of Jak3 (α-Jak3; Kawamura, et al. (1994) *Proc Nat'l Acad Sci USA* 91:6374–8) or rabbit polyclonal antibody specific for STAT5b (Santa Cruz Biotechnology, Santa Cruz, Calif.). Immunoprecipitates were then washed, boiled, and resolved using SDS-PAGE. […]

Data set [3] concerns the target T2, cytokine receptor common gamma chain …. Description: co-immunoprecipitation, 293T cells.
The target is the same in data set [4]. The experiment in a line: co-immunoprecipitation from 293T lysates; γc precipitated, blot for the epitope-tagged Jak3 fragment. The method, then: as §1

B1: Jak3 Y100C (enzyme)
chain: MAPPSEETPLIPQRSCSLLSTEAGALHVLLPARAPGPPQRLSFSFGDHLAEDLCVQAAKASGILPVYHSLFALATEDLSCWFPPSHIFSVEDASTQVLLCRIRFYFPNWFGLEKCHRFGLRKDLASAILDLPVLEHLFAQHRSDLVSGRLPVGLSLKEQGECLSLAVLDLARMAREQAQRPGELLKTVSYKACLPPSLRDLIQGLSFVTRRAIRRTVRRALPRVAACQADRHSLMAKYIMDLERLDPAGAAETFHVGLPGALGGHDGLGLLRVAGDGGIAWTQGEQEVLQPFCDFPEIVDISIKQAPRVGPAGEHRLVTVTRTDNQILEAEFPGLPEALSFVALVDGYFRLTTDSQHFFCKEVAPPRLLEEVAEQCHGPITLDFAINKLKTGGSRPGSYVLRRSPQDFDSFLLTVCVQNPLGPDYKGCLIRRSPTGTFLLVGLSRPHSSLRELLATCWDGGLHVDGVAVTLTSCCIPRPKEKSNLIVVQRGHSPPTSSLVQPQSQYQLSQMTFHKIPADSLEWHENLGHGSFTKIYRGCRHEVVDGEARKTEVLLKVMDAKHKNCMESFLEAASLMSQVSYRHLVLLHGVCMAGDSTMVQEFVHLGAIDMYLRKRGHLVPASWKLQVVKQLAYALNYLEDKGLPHGNVSARKVLLAREGADGSPPFIKLSDPGVSPAVLSLEMLTDRIPWVAPECLREAQTLSLEADKWGFGATVWEVFSGVTMPISALDPAKKLQFYEDRQQLPAPKWTELALLIQQCMAYEPVQRPSFRAVIRDLNSLISSDYELLSDPTPGALAPRDGLWNGAQLYACQDPTIFEERHLKYISQLGKGNFGSVELCRYDPLAHNTGALVAVKQLQHSGPDQQRDFQREIQILKALHSDFIVKYRGVSYGPGRPELRLVMEYLPSGCLRDFLQRHRARLDASRLLLYSSQICKGMEYLGSRRCVHRDLAARNILVESEAHVKIADFGLAKLLPLDKDYYVVREPGQSPIFWYAPESLSDNIFSRQSDVWSFGVVLYELFTYCDKSCSPSAEFLRMMGCERDVPALCRLLELLEEGQRLPAPPACPAEVHELMKLCWAPSPQDRPSFSALGPQLDMLWSGSRGCETHAFTAHPEGKHHSLSFS
notes: also called Y100C mutant; patient mutant; not shown: C-terminal FLAG tag (single copy) joined through a ClaI site
As to B1, in data set [1], the “IL-2 induced tyrosine phosphorylation of Jak3 in IL-2R+ fibroblasts” value was “no IL-2-induced phosphorylation of Jak3 Y100C was observed”. In addition, in data set [2], the binding result is listed as “no binding”.

B2: Jak3 Y100C/Y105F double mutant (enzyme)
chain: MAPPSEETPLIPQRSCSLLSTEAGALHVLLPARAPGPPQRLSFSFGDHLAEDLCVQAAKASGILPVYHSLFALATEDLSCWFPPSHIFSVEDASTQVLLCRIRFFFPNWFGLEKCHRFGLRKDLASAILDLPVLEHLFAQHRSDLVSGRLPVGLSLKEQGECLSLAVLDLARMAREQAQRPGELLKTVSYKACLPPSLRDLIQGLSFVTRRAIRRTVRRALPRVAACQADRHSLMAKYIMDLERLDPAGAAETFHVGLPGALGGHDGLGLLRVAGDGGIAWTQGEQEVLQPFCDFPEIVDISIKQAPRVGPAGEHRLVTVTRTDNQILEAEFPGLPEALSFVALVDGYFRLTTDSQHFFCKEVAPPRLLEEVAEQCHGPITLDFAINKLKTGGSRPGSYVLRRSPQDFDSFLLTVCVQNPLGPDYKGCLIRRSPTGTFLLVGLSRPHSSLRELLATCWDGGLHVDGVAVTLTSCCIPRPKEKSNLIVVQRGHSPPTSSLVQPQSQYQLSQMTFHKIPADSLEWHENLGHGSFTKIYRGCRHEVVDGEARKTEVLLKVMDAKHKNCMESFLEAASLMSQVSYRHLVLLHGVCMAGDSTMVQEFVHLGAIDMYLRKRGHLVPASWKLQVVKQLAYALNYLEDKGLPHGNVSARKVLLAREGADGSPPFIKLSDPGVSPAVLSLEMLTDRIPWVAPECLREAQTLSLEADKWGFGATVWEVFSGVTMPISALDPAKKLQFYEDRQQLPAPKWTELALLIQQCMAYEPVQRPSFRAVIRDLNSLISSDYELLSDPTPGALAPRDGLWNGAQLYACQDPTIFEERHLKYISQLGKGNFGSVELCRYDPLAHNTGALVAVKQLQHSGPDQQRDFQREIQILKALHSDFIVKYRGVSYGPGRPELRLVMEYLPSGCLRDFLQRHRARLDASRLLLYSSQICKGMEYLGSRRCVHRDLAARNILVESEAHVKIADFGLAKLLPLDKDYYVVREPGQSPIFWYAPESLSDNIFSRQSDVWSFGVVLYELFTYCDKSCSPSAEFLRMMGCERDVPALCRLLELLEEGQRLPAPPACPAEVHELMKLCWAPSPQDRPSFSALGPQLDMLWSGSRGCETHAFTAHPEGKHHSLSFS
notes: not shown: C-terminal FLAG tag (single copy) joined through a ClaI site
Take B2: the binding result in data set [2] is on record as “no binding”.

B3: Jak3 Y100C/K855A (enzyme)
chain: MAPPSEETPLIPQRSCSLLSTEAGALHVLLPARAPGPPQRLSFSFGDHLAEDLCVQAAKASGILPVYHSLFALATEDLSCWFPPSHIFSVEDASTQVLLCRIRFYFPNWFGLEKCHRFGLRKDLASAILDLPVLEHLFAQHRSDLVSGRLPVGLSLKEQGECLSLAVLDLARMAREQAQRPGELLKTVSYKACLPPSLRDLIQGLSFVTRRAIRRTVRRALPRVAACQADRHSLMAKYIMDLERLDPAGAAETFHVGLPGALGGHDGLGLLRVAGDGGIAWTQGEQEVLQPFCDFPEIVDISIKQAPRVGPAGEHRLVTVTRTDNQILEAEFPGLPEALSFVALVDGYFRLTTDSQHFFCKEVAPPRLLEEVAEQCHGPITLDFAINKLKTGGSRPGSYVLRRSPQDFDSFLLTVCVQNPLGPDYKGCLIRRSPTGTFLLVGLSRPHSSLRELLATCWDGGLHVDGVAVTLTSCCIPRPKEKSNLIVVQRGHSPPTSSLVQPQSQYQLSQMTFHKIPADSLEWHENLGHGSFTKIYRGCRHEVVDGEARKTEVLLKVMDAKHKNCMESFLEAASLMSQVSYRHLVLLHGVCMAGDSTMVQEFVHLGAIDMYLRKRGHLVPASWKLQVVKQLAYALNYLEDKGLPHGNVSARKVLLAREGADGSPPFIKLSDPGVSPAVLSLEMLTDRIPWVAPECLREAQTLSLEADKWGFGATVWEVFSGVTMPISALDPAKKLQFYEDRQQLPAPKWTELALLIQQCMAYEPVQRPSFRAVIRDLNSLISSDYELLSDPTPGALAPRDGLWNGAQLYACQDPTIFEERHLKYISQLGKGNFGSVELCRYDPLAHNTGALVAVAQLQHSGPDQQRDFQREIQILKALHSDFIVKYRGVSYGPGRPELRLVMEYLPSGCLRDFLQRHRARLDASRLLLYSSQICKGMEYLGSRRCVHRDLAARNILVESEAHVKIADFGLAKLLPLDKDYYVVREPGQSPIFWYAPESLSDNIFSRQSDVWSFGVVLYELFTYCDKSCSPSAEFLRMMGCERDVPALCRLLELLEEGQRLPAPPACPAEVHELMKLCWAPSPQDRPSFSALGPQLDMLWSGSRGCETHAFTAHPEGKHHSLSFS
notes: also called J3 Y100C/K855A; not shown: C-terminal FLAG or Myc tag joined through a ClaI site
As for B3, the binding result in data set [3] is “no binding”.

B4: Jak3 fragment J3 1-109 (other, not shown: small tags and cut ends)
chain: MAPPSEETPLIPQRSCSLLSTEAGALHVLLPARAPGPPQRLSFSFGDHLAEDLCVQAAKASGILPVYHSLFALATEDLSCWFPPSHIFSVEDASTQVLLYRIRFYFPNW
For the molecule B4, the binding result in data set [4] is reported as “no binding”.
